From publication PMC11197462 (Structure (London, England : 1993), 2023)

Assays:
[1] = target: human LAG3, four Ig-like extracellular domains (D1-D4; residues 1-449) (human, UniProt P18627); experiment: SEC
[2] = target: Fab favezelimab(mut); experiment: SEC

Sequence of human LAG3, four Ig-like extracellular domains (D1-D4; residues 1-449) (P18627 23-449): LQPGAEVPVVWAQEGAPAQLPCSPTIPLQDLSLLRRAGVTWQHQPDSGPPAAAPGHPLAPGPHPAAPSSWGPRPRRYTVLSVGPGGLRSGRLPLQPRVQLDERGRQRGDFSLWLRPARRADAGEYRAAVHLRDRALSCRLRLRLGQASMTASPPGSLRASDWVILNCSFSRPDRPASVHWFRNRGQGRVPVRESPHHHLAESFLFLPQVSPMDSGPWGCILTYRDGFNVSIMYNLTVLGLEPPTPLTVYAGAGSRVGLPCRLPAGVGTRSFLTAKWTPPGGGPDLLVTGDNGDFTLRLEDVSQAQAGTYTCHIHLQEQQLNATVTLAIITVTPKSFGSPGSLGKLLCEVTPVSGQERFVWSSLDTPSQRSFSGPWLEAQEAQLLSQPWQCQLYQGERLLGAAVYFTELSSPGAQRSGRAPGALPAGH

- stoichiometry N [1]: 2
- percent of the protein in the dimer peak [2]: 85%
- stoichiometry N [2]: 2
B1: Fab favezelimab(mut) (Fab, V domains shown)
VH: EVLLLQSGPELVKPGTSVKIPCKASGYTFTDYNVDWVKQRHGKGLEWIGDINPNNGGTIYSQKFKGKATLTVDKSSSTAFMELRSLTSEDTAVYFCARNYRWFGAMDHWGQGTSVTVSS
VL: DIVLTQSPASLAVSPGQRATISCKASQSLDYEGDSDMNWYQQKPGQPPRLLISGASNLESGIPARFSGSGSGTDFTVNIHPVEEEDAATYYCQQSTEDPRTFGGGTKLEIK
